According to patent US20170166631A1 (published 2017):
Read-outs that look alike come from different tables or passages of the source.

Experiments:
Assay in all cases: ELISA
[1] = molecular target: T1, HD21 (huntingtin exon 1 protein with 21 polyQ repeats after cleavage of the GST tag; aggregation reaction) (human, UniProt P42858 1-88)
T1 chain: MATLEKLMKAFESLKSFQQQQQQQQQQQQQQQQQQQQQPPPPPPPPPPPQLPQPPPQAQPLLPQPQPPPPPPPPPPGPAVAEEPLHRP

[2] = molecular target: T2, HD49 (huntingtin exon 1 protein with 49 polyQ repeats after cleavage of the GST tag; aggregation reaction) (human, UniProt P42858 1-88)
T2 chain: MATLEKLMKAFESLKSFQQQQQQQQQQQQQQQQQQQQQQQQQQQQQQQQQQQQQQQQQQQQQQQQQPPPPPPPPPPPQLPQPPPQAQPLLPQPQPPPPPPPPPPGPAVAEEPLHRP

[3] = molecular target: T3, BSA-coupled synthetic peptide of the P-rich domain sequence of huntingtin exon 1 (coupled to BSA)
T3 peptide: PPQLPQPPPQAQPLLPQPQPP

[4] = molecular target: T4, GST-HttExon1Q21 (recombinant huntingtin exon 1 protein with 21 polyQ repeats fused to an N-terminal GST tag) (;human, UniProt P08515 1-218 = GST; P42858 1-88)
Target sequence in this assay (P08515 1-218, tags or fused parts left off): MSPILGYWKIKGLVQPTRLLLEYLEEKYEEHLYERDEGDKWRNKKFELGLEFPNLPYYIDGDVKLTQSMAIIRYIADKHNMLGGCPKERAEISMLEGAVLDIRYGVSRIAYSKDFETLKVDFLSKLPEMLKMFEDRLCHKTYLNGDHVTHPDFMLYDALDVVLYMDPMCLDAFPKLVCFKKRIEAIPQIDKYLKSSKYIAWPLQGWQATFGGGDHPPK

[5] = molecular target: T1, HD21 (huntingtin exon 1 protein with 21 …)
[6] = molecular target: T2, HD49 (huntingtin exon 1 protein with 49 …)
[7] = molecular target: T4, GST-HttExon1Q21 (recombinant huntingtin …); remark: listed apart in the source
[8] = molecular target: T1, HD21 (huntingtin exon 1 protein with 21 …)
[9] = molecular target: T2, HD49 (huntingtin exon 1 protein with 49 …)
[10] = molecular target: T4, GST-HttExon1Q21 (recombinant huntingtin …); remark: listed apart in the source
[11] = molecular target: T1, HD21 (huntingtin exon 1 protein with 21 …)
[12] = molecular target: T2, HD49 (huntingtin exon 1 protein with 49 …)
[13] = molecular target: T4, GST-HttExon1Q21 (recombinant huntingtin …); remark: listed apart in the source
Target sequence in this assay (P08515 1-218, tags or fused parts left off): as above

[14] = molecular target: T1, HD21 (huntingtin exon 1 protein with 21 …)
[15] = molecular target: T2, HD49 (huntingtin exon 1 protein with 49 …)
[16] = molecular target: T4, GST-HttExon1Q21 (recombinant huntingtin …); remark: listed apart in the source
[17] = molecular target: T1, HD21 (huntingtin exon 1 protein with 21 …)
[18] = molecular target: T2, HD49 (huntingtin exon 1 protein with 49 …)
[19] = molecular target: T4, GST-HttExon1Q21 (recombinant huntingtin …); remark: listed apart in the source
[20] = molecular target: T1, HD21 (huntingtin exon 1 protein with 21 …)
[21] = molecular target: T4, GST-HttExon1Q21 (recombinant huntingtin …); remark: listed apart in the source
[22] = molecular target: T5, BSA-coupled synthetic peptide of the 14 C-terminal amino acids of huntingtin exon 1 (coupled to BSA)
T5 peptide: PPGPAVAEEPLHRP

[23] = molecular target: T6, BSA-coupled synthetic peptide of the polyP repeat sequence of huntingtin exon 1 (coupled to BSA)
T6 peptide: PPPPPPPPPPP

[24] = molecular target: T1, HD21 (huntingtin exon 1 protein with 21 …)
[25] = molecular target: T2, HD49 (huntingtin exon 1 protein with 49 …)
[26] = molecular target: T4, GST-HttExon1Q21 (recombinant huntingtin …); remark: listed apart in the source

B1: NI-302.63F3 (antibody, V domains shown)
VH: QVQLVQSGSAFKKPGTSVKVSCKASGYTFETRSMNWVRQAPGQGLEYMGWINTNTGNRTYVQAFRGRFVFSLDTSVSTAYLQISNLKTEDTAVYYCARGAGGGYWFDSWGQGTLVTVSS
VL: DIQMTQSPDSLAVSLGERATINCKSNQSLFYSSNNNNYLAWYQHKSGQPPKLLVYWGSTRESGVPDRFSGSGSGTDFTLTISSLQAEDVAIYYCHQYYHNPYTFGQGTKLEIK
Q: For B1, which EC50 [1] is on record?
A: 0.3 nM

Q: And the EC50 [2]?
A: 0.4 nM

Q: What about the EC50 [3] of the same binder?
A: 0.3 nM

Q: What about the EC50 [4] of the same binder?
A: 0.2 nM

Q: And the EC50 [5]?
A: 0.3 nM

Q: And the EC50 [6]?
A: 0.4 nM

Q: And the EC50 [7]?
A: 0.2 nM

B2: NI-302.39G12 (antibody, V domains shown)
VH: EVQLVQSGGGLVHPWGSLRLSCAASGFSVSNYAITWVRRAPGKGLQYISVIYRDGRTYYGDSVRGRFTISRDDSKNTLYLQMNSLRFEDTAVYYCARAHGQYYYGVDVWGQGTTVTVSS
VL: DVVMTQSPLSLSVSPGEPASISCRSSQSLLHSNGYNYLDWYRQKPGQSPQLLIYLSSNRPSGVPDRFSASGSGTEFTLQISRVEAEDVGVYYCMQSLQTFTFGGGTKVDIK
Q: How did the EC50 [8] turn out when B2 was run?
A: 15 nM

Q: What about the EC50 [9] of the same binder?
A: 28 nM

Q: What about the EC50 [10] of the same binder?
A: 3.4 nM

Q: And the EC50 [11]?
A: 15 nM

Q: And the EC50 [12]?
A: 28 nM

Q: And the EC50 [13]?
A: 3.4 nM

B3: NI-302.64E5 (antibody, V domains shown)
VH: EVQLVETGGGLVKPGGSLRLSCAASGFTFDQAWMSWVRQVPGKGLEWVGRIKTKTEGEATDYAAPVRGRFTISRDDSEDTVFLQMNSLKTEDTALYYCTSTGVLAAAVDVYWGQGTLVTVSS
VL: DIQLTQSPDSLAVSLGERATMTCKSSQSLFYSYNNENYLAWYQQRPGQPPKLLIYWASTRESGVPDRFSGSGSGTDFTLTISSLQAEDVAVYYCQQYYSTPQTFGQGTKVDIK
Q: With B3 as the binder, how does the EC50 [14] read?
A: 0.7 nM

Q: And the EC50 [15]?
A: 1.6 nM

Q: And the EC50 [16]?
A: 1.4 nM

Q: What about the EC50 [1] of the same binder?
A: 0.7 nM

Q: What about the EC50 [2] of the same binder?
A: 1.6 nM

Q: And the EC50 [3]?
A: 0.1 nM

Q: And the EC50 [4]?
A: 1.4 nM

B4: NI-302.15E8 (antibody, V domains shown)
VH: EVQLVESGGGLIQPGGSLRLSCAVSGFTVSSYSMNWVRQAPGKGLEWVSYTSSSRSNTKKYADSVKGRFTISRDNARNSLYLQMNSLRDEDTAVYYCARAGDFGELLTGEGYYGMDVWGQGTTVTVSS
VL: SYELTQPPSVSVSPGQTATITCSGDELGDKYVGWYQQKPGQSPLLVIYQDAKRPSGIPERFSGSNSGNTATLTISGTQAMDEADYYCQAWDSGTMVFGGGTRLTVL
Q: With B4 as the binder, how does the EC50 [1] read?
A: > 100 nM

Q: What about the EC50 [2] of the same binder?
A: > 100 nM

Q: What about the EC50 [4] of the same binder?
A: 9.3 nM

Q: What about the EC50 [17] of the same binder?
A: > 100 nM

Q: What about the EC50 [18] of the same binder?
A: > 100 nM

Q: What about the EC50 [19] of the same binder?
A: 9.3 nM

B5: NI-302.35C1 (antibody, V domains shown)
VH: EVQLVESGGNLVQPGGSLRLSCTASGFTFSITALSWVRQAPEKGPQWVSAITGNAYGTYYADSVKGRFTISRDNAKNTLYLQMNGLRAEDTAIYYCVKGIASDSSGYSAFWGPGTLVTVSS
VL: EIVLTQSPATLSLSPGERATLSCRASQSVDNQFAWYQQKPGQAPRLLIYDASRRAPGIPDRFSGSGSGTDFTLTISSLEPEDFAIYYCQHRYTWLYTFGQGTRLEIK
Q: Which results are given for B5?
A: EC50 [20]: 7.9 nM; EC50 [21]: 4.6 nM; EC50 [1]: 7.9 nM; EC50 [4]: 4.6 nM

B6: NI-302.11A4 (antibody, V domains shown)
VH: EVQLVESGGGLIQPGGSLRLSCAASGFPVSSSYMSWVRQAPGEGLEWVSVLYRDGDTYYADSVQGRFTISRDNSQNTFYLQMNSLKAEDTAVYYCAGDRRSSHYYYGMDVWGQGTTVTVSS
VL: EIVMTQSPGTLSLSPGERATLSCRASQSVSSSYFAWYQQKPGQAPRLLIYGTSRRATAIPDRFSGSGSGTDFTLTISRLEPEDFAVYYCQQYGSSWTFGPGTKVEIK
Q: What does the source list for B6?
A: EC50 [8]: 18.2 nM; EC50 [9]: 19 nM; EC50 [10]: 1.4 nM; EC50 [11]: 18 nM; EC50 [12]: 19 nM; EC50 [13]: 1.4 nM

B7: NI-302.72F10 (antibody, V domains shown)
VH: EVQLVETGGGFVQPGGSLRLSCAASGFNFGSYAMSWVRQAPGKGLEWVSDISGIGSNTYYADSVKGRFTISRDNSDNTLYLDMSSLRAEDTARYYCAKDRKRSGWYEQWGQGTLVTVSS
VL: EIVMTQSPATLTLSPGERATLSCRASQSISAYLGWYQQKPGQAPRLLIYDASIRATGIPDRFSGSGSGTDFTLTISSLEPEDSAVYYCHQRSKWPLTFGGGTKVEIK
Q: What does the source list for B7?
A: EC50 [14]: 4 nM; EC50 [15]: 26 nM; EC50 [16]: 10 nM; EC50 [22]: 0.1 nM; EC50 [1]: 4 nM; EC50 [2]: 26 nM; EC50 [4]: 10 nM

B8: NI-302.33C11 (antibody, V domains shown)
VH: EVQLVESGGGVVQPGNSLRLSCAASGFRFSDFGMHWVRQAPGKGLEWLALIWYDGGYKYYADSVKGRFTISRDNSKNTMFLQMNSLRAEDTAVYYCATHLEYCSRTTCYLGHWGQGTLVTVSS
VL: DIQLTQSPSFLSASVGDTVTFTCRASQGISDYLAWFQQKPGIAPKLLIYAASTLQTGVPSRFSGSGSGTEFTLTIRSLQSEDFGTYYCQQLKTYPYTFGQGTKVEIK
Q: Which EC50 [1] does the source give for B8 here?
A: 0.13 nM

Q: What about the EC50 [2] of the same binder?
A: 0.15 nM

Q: And the EC50 [23]?
A: 0.1 nM

Q: And the EC50 [4]?
A: 0.11 nM

Q: And the EC50 [24]?
A: 0.13 nM

Q: And the EC50 [25]?
A: 0.15 nM

Q: What about the EC50 [26] of the same binder?
A: 0.11 nM
